Reference: PMC5331220

How the values were obtained:
Experiment in all cases: ITC; GppNHp-Rab35 (480 μM) injected in 2 μl aliquots into the C-terminal MICAL1 domain (60 μM) in the cell; 10 °C; 50 mM Tris pH 8, 150 mM NaCl, 2 mM MgCl2, 2 mM TCEP, 5% glycerol; one-site model
[1] = molecular target: MICAL1^879–1067 (tag cleaved, for ITC) (human) (UniProt Q8TDZ2)
[2] = molecular target: MICAL1^918–1067 WT C-terminal domain (tag cleaved) (human) (UniProt Q8TDZ2)
[3] = molecular target: MICAL1^918–1067 mutant S1 (human) (UniProt Q8TDZ2)

Sequence of MICAL1^918–1067 WT C-terminal domain (tag cleaved) (human) (Q8TDZ2 918-1067): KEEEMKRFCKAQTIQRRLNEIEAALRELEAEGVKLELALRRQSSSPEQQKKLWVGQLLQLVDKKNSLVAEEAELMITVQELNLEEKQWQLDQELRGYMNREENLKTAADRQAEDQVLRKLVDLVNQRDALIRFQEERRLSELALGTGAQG
Sequence of MICAL1^879–1067 (tag cleaved, for ITC) (human) (Q8TDZ2 879-1067): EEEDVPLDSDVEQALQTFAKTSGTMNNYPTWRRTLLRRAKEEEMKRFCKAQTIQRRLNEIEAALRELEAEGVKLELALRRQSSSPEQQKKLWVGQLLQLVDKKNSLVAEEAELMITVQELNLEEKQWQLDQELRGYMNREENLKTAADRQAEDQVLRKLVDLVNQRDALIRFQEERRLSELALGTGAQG

Substance: Rab35 (recombinant, for ITC and competition; Rab35^1-199 taken as the likeliest construct) (from UniProt Q15286 1-199) (natural protein)
- Kd [1]: 13 µM
- Kd [2]: 6.4 µM
- stoichiometry N [2]: 1
- stoichiometry N [3]: 1
